Test results taken from the supplement of paper PMC5998384.

What was measured:
HeLa Kyoto [1] = test: solubility in G1/S (NP-40 vs SDS abundance) (log2 ratio); higher = more soluble; details: cell cycle stage: G1/S
HeLa Kyoto [2] = test: solubility change mitosis vs G1/S (difference of NP-40 vs SDS log2 ratios) (log2 ratio difference); higher = more soluble in mitosis
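Throughout, for solubility change mitosis vs G1/S (difference of NP-40 vs SDS log2 ratios): synchronized HeLa Kyoto cells (double thymidine block for G1/S, nocodazole release for mitosis), protein amounts in NP-40 versus SDS lysates quantified by mass spectrometry, three biological replicates.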
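Throughout, for solubility in G1/S (NP-40 vs SDS abundance): HeLa Kyoto cells arrested at G1/S by double thymidine block, proteins quantified by TMT10plex mass spectrometry in mild NP-40 versus SDS extracts, three biological replicates.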

Sequence | solubility in G1/S (log2) (HeLa Kyoto [1]) | solubility change mitosis (log2) (HeLa Kyoto [2])
MAAGSDLLDEVFFNSEVDEKVVSDLVGSLESQLAASAAHHHHLAPRTPEVRAAAAGALGNHVVSGSPAGAAGAGPAAPAEGAPGAAPEPPPAGRARPGGGGPQRPGPPSPRRPLVPAGPAPPAAKLRPPPEGSAGSCAPVPAAAAVAAGPEPAPAGPAKPAGPAALAARAGPGPGPGPGPGPGPGPGKPAGPGAAQTLNGSAALLNSHHAAAPAVSLVNNGPAALLPLPKPAAPGTVIQTPPFVGAAAPPAPAAPSPPAAPAPAAPAAAPPPPPPAPATLARPPGHPAGPPTAAPAVPPPAAAQNGGSAGAAPAPAPAAGGPAGVSGQPGPGAAAAAPAPGVKAESPKRVVQAAPPAAQTLAASGPASTAASMVIGPTMQGALPSPAAVPPPAPGTPTGLPKGAAGAVTQSLSRTPTATTSGIRATLTPTVLAPRLPQPPQNPTNIQNFQLPPGMVLVRSENGQLLMIPQQALAQMQAQAHAQPQTTMAPRPATPTSAPPVQISTVQAPGTPIIARQVTPTTIIKQVSQAQTTVQPSATLQRSPGVQPQLVLGGAAQTASLGTATAVQTGTPQRTVPGATTTSSAATETMENVKKCKNFLSTLIKLASSGKQSTETAANVKELVQNLLDGKIEAEDFTSRLYRELNSSPQPYLVPFLKRSLPALRQLTPDSAAFIQQSQQQPPPPTSQATTALTAVVLSSSVQRTAGKTAATVTSALQPPVLSLTQPTQVGVGKQGQPTPLVIQQPPKPGALIRPPQVTLTQTPMVALRQPHNRIMLTTPQQIQLNPLQPVPVVKPAVLPGTKALSAVSAQAAAAQKNKLKEPGGGSFRDDDDINDVASMAGVNLSEESARILATNSELVGTLTRSCKDETFLLQAPLQRRILEIGKKHGITELHPDVVSYVSHATQQRLQNLVEKISETAQQKNFSYKDDDRYEQASDVRAQLKFFEQLDQIEKQRKDEQEREILMRAAKSRSRQEDPEQLRLKQKAKEMQQQELAQMRQRDANLTALAAIGPRKKRKVDCPGPGSGAEGSGPGSVVPGSSGVGTPRQFTRQRITRVNLRDLIFCLENERETSHSLLLYKAFLK [TAF4] | 0.132 | 0.0124
MAALAEEQTEVAVKLEPEGPPTLLPPQAGDGAGEGSGGTTNNGPNGGGGNVAASSSTGGDGGTPKPTVAVSAAAPAGAAPVPAAAPDAGAPHDRQTLLAVLQFLRQSKLREAEEALRREAGLLEEAVAGSGAPGEVDSAGAEVTSALLSRVTASAPGPAAPDPPGTGASGATVVSGSASGPAAPGKVGSVAVEDQPDVSAVLSAYNQQGDPTMYEEYYSGLKHFIECSLDCHRAELSQLFYPLFVHMYLELVYNQHENEAKSFFEKFHGDQECYYQDDLRVLSSLTKKEHMKGNETMLDFRTSKFVLRISRDSYQLLKRHLQEKQNNQIWNIVQEHLYIDIFDGMPRSKQQIDAMVGSLAGEAKREANKSKVFFGLLKEPEIEVPLDDEDEEGENEEGKPKKKKPKKDSIGSKSKKQDPNAPPQNRIPLPELKDSDKLDKIMNMKETTKRVRLGPDCLPSICFYTFLNAYQGLTAVDVTDDSSLIAGGFADSTVRVWSVTPKKLRSVKQASDLSLIDKESDDVLERIMDEKTASELKILYGHSGPVYGASFSPDRNYLLSSSEDGTVRLWSLQTFTCLVGYKGHNYPVWDTQFSPYGYYFVSGGHDRVARLWATDHYQPLRIFAGHLADVNCTRFHPNSNYVATGSADRTVRLWDVLNGNCVRIFTGHKGPIHSLTFSPNGRFLATGATDGRVLLWDIGHGLMVGELKGHTDTVCSLRFSRDGEILASGSMDNTVRLWDAIKAFEDLETDDFTTATGHINLPENSQELLLGTYMTKSTPVVHLHFTRRNLVLAAGAYSPQ [TAF5] | -0.0963 | 0.00763
MAALGHLAGEAAAAPGPGTPCASRGARLPGPVSSARNPSTVCLCPEQPTCSNADSRAHPLGDEGGTASKKQKNKKKTRNRASVANGGEKASEKLAPEEVPLSAEAQAQQLAQELAWCVEQLELGLKRQKPTPKQKEQAIGAIRTLRSKRTPLPRKRQLMHSLFGDYRAQMEAEWREALRALRAAAYSAQVQPVDGATRKKSQRVCRPRSIWRAKATLDMPDEEFRFNFF [C8ORF33] | 0.306 | 0.747
MAAPRWSASGPWIRGNGQGCGSLFTLVSKPFCAAAAASTAINAQRLAEKLRAQKREQDTKKEPVSTNAVQRRVQEIVRFTRQLQRVHPNVLAKALTRGILHQDKNLVVINKPYGLPVHGGPGVQLCITDVLPILAKMLHGHKAEPLHLCHRLDKETTGVMVLAWDKDMAHQVQELFRTRQVVKKYWAITVHVPMPSAGVVDIPIVEKEAQGQQQHHKMTLSPSYRMDDGKMVKVRRSRNAQVAVTQYQVLSSTLSSALVELQPITGIKHQLRVHLSFGLDCPILGDHKYSDWNRLAPQKLSVGTLKKLGLEQSKARYIPLHLHARQLILPALGSGKEELNLVCKLPRFFVHSLHRLRLEMPNEDQNENNEAKCLGAQ [RPUSD4] | -0.22 | 0.0788
MAAPTPARPVLTHLLVALFGMGSWAAVNGIWVELPVVVKELPEGWSLPSYVSVLVALGNLGLLVVTLWRRLAPGKDEQVPIRVVQVLGMVGTALLASLWHHVAPVAGQLHSVAFLALAFVLALACCASNVTFLPFLSHLPPRFLRSFFLGQGLSALLPCVLALVQGVGRLECPPAPINGTPGPPLDFLERFPASTFFWALTALLVASAAAFQGLLLLLPPPPSVPTGELGSGLQVGAPGAEEEVEESSPLQEPPSQAAGTTPGPDPKAYQLLSARSACLLGLLAATNALTNGVLPAVQSFSCLPYGRLAYHLAVVLGSAANPLACFLAMGVLCRSLAGLGGLSLLGVFCGGYLMALAVLSPCPPLVGTSAGVVLVVLSWVLCLGVFSYVKVAASSLLHGGGRPALLAAGVAIQVGSLLGAVAMFPPTSIYHVFHSRKDCADPCDS [SLC52A2] | -0.143 | 0.202
MAAPVGPVKFWRPGTEGPGVSISEERQSLAENSGTTVVYNPYAALSIEQQRQKLPVFKLRNHILYLIENYQTVVIVGETGCGKSTQIPQYLAEAGWTAEGRVVGVTQPRRVAAVTVAGRVAEERGAVLGHEVGYCIRFDDCTDQLATRIKFLTDGMLVREMMVDPLLTKYSVIMLDEAHERTLYTDIAIGLLKKIQKKRGDLRLIVASATLDADKFRDFFNQNETSDPARDTCVILTVEGRTFPVDIFYLQSPVPDYIKSTVETVVKIHQTEGDGDVLAFLTGQEEVETVVSMLIEQARALARTGMKRHLRVLPMYAGLPSFEQMKVFERVSRSVRKVIVATNVAETSITISGIVYVIDCGFVKLRAYNPRTAIECLVVVPVSQASANQRAGRGGRSRSGKCYRLYTEEAFDKLPQSTVPEMQRSNLAPVILQLKALGIDNVLRFHFMSPPPAQSMVQALELLYALGGLDKDCRLTEPLGMRIAEFPLNPMFAKMLLESGNFGCSQEILSIAAMMQIQNIFVVPPNQKSHAIRVHRKFAVEEGDHLTMLNIYEAFIKHNKDSKWCQEHFLNYKGLVRAATVREQLKKLLVKFQVPRKSSEGDPDLVLRCIVSGFFANAARFHSTGAYRTIRDDHELHIHPASVLYAEKPPRWVIYNEVIQTSKYYMRDVTAIESAWLLELAPHFYQQGTHLSLKAKRAKVQDP [DHX35] | -0.538 | 0.261
MAAPVLLRVSVPRWERVARYAVCAAGILLSIYAYHVEREKERDPEHRALCDLGPWVKCSAALASRWGRGFGLLGSIFGKDGVLNQPNSVFGLIFYILQLLLGMTASAVAALILMTSSIMSVVGSLYLAYILYFVLKEFCIICIVTYVLNFLLLIINYKRLVYLNEAWKRQLQPKQD [VKORC1L1] | -0.56 | -0.107
MAARGRRAWLSVLLGLVLGFVLASRLVLPRASELKRAGPRRRASPEGCRSGQAAASQAGGARGDARGAQLWPPGSDPDGGPRDRNFLFVGVMTAQKYLQTRAVAAYRTWSKTIPGKVQFFSSEGSDTSVPIPVVPLRGVDDSYPPQKKSFMMLKYMHDHYLDKYEWFMRADDDVYIKGDRLENFLRSLNSSEPLFLGQTGLGTTEEMGKLALEPGENFCMGGPGVIMSREVLRRMVPHIGKCLREMYTTHEDVEVGRCVRRFAGVQCVWSYEMQQLFYENYEQNKKGYIRDLHNSKIHQAITLHPNKNPPYQYRLHSYMLSRKISELRHRTIQLHREIVLMSKYSNTEIHKEDLQLGIPPSFMRFQPRQREEILEWEFLTGKYLYSAVDGQPPRRGMDSAQREALDDIVMQVMEMINANAKTRGRIIDFKEIQYGYRRVNPMYGAEYILDLLLLYKKHKGKKMTVPVRRHAYLQQTFSKIQFVEHEELDAQELAKRINQESGSLSFLSNSLKKLVPFQLPGSKSEHKEPKDKKINILIPLSGRFDMFVRFMGNFEKTCLIPNQNVKLVVLLFNSDSNPDKAKQVELMRDYRIKYPKADMQILPVSGEFSRALALEVGSSQFNNESLLFFCDVDLVFTTEFLQRCRANTVLGQQIYFPIIFSQYDPKIVYSGKVPSDNHFAFTQKTGFWRNYGFGITCIYKGDLVRVGGFDVSIQGWGLEDVDLFNKVVQAGLKTFRSQEVGVVHVHHPVFCDPNLDPKQYKMCLGSKASTYGSTQQLAEMWLEKNDPSYSKSSNNNGSVRTA [CHSY1] | -0.388 | 0.159
MAARPITLGIDLGTTSVKAALLRAAPDDPSGFAVLASCARAARAEAAVESAVAGPQGREQDVSRILQALHECLAALPRPQLRSVVGIGVSGQMHGVVFWKTGQGCEWTEGGITPVFEPRAVSHLVTWQDGRCSSEFLASLPQPKSHLSVATGFGCATIFWLLKYRPEFLKSYDAAGTIHDYVVAMLCGLPRPLMSDQNAASWGYFNTQSQSWNVETLRSSGFPVHLLPDIAEPGSVAGRTSHMWFEIPKGTQVGVALGDLQASVYSCMAQRTDAVLNISTSVQLAASMPSGFQPAQTPDPTAPVAYFPYFNRTYLGVAASLNGGNVLATFVHMLVQWMADLGLEVEESTVYSRMIQAAVQQRDTHLTITPTVLGERHLPDQLASVTRISSSDLSLGHVTRALCRGIVQNLHSMLPIQQLQEWGVERVMGSGSALSRNDVLKQEVQRAFPLPMSFGQDVDAAVGAALVMLRRHLNQKES [SHPK] | -0.0429 | -0.108
MAASKKAVLGPLVGAVDQGTSSTRFLVFNSRTAELLSHHQVEIKQEFPREGWVEQDPKEILHSVYECIEKTCEKLGQLNIGISNIKAIGVSNQRETTVVWDKITGEPLYNAVVWLDLRTQSTVESLSKRIPGNNNFVKSKTGLPLSTYFSAVKLRWLLDNVRKVQKAVEEKRALFGTIDSWLIWSLTGGVNGGVHCTDVTNASRTMLFNIHSLEWDKQLCEFFGIPMEILPHVRSSSEIYGLMKAGALEGVPISGCLGDQSAALVGQMCFQIGQAKNTYGTGCFLLCNTGHKCVFSDHGLLTTVAYKLGRDKPVYYALEGSVAIAGAVIRWLRDNLGIIKTSEEIEKLAKEVGTSYGCYFVPAFSGLYAPYWEPSARGIICGLTQFTNKCHIAFAALEAVCFQTREILDAMNRDCGIPLSHLQVDGGMTSNKILMQLQADILYIPVVKPLMPETTALGAAMAAGAAEGVDVWSLEPEDLSAVTMERFEPQINAEESEIRYSTWKKAVMKSMGWVTTQSPEGGDPSVFCSLPLGFFIVSSMAMLIGARYISGIP [GK3P] | -0.0732 | -0.0298
MAASLWMGDLEPYMDENFISRAFATMGETVMSVKIIRNRLTGIPAGYCFVEFADLATAEKCLHKINGKPLPGATPAKRFKLNYATYGKQPDNSPEYSLFVGDLTPDVDDGMLYEFFVKVYPSCRGGKVVLDQTGVSKGYGFVKFTDELEQKRALTECQGAVGLGSKPVRLSVAIPKASRVKPVEYSQMYSYSYNQYYQQYQNYYAQWGYDQNTGSYSYSYPQYGYTQSTMQTYEEVGDDALEDPMPQLDVTEANKEFMEQSEELYDALMDCHWQPLDTVSSEIPAMM [TRNAU1AP] | 0.0945 | -0.0623
